Data: the nanobody polyreactivity screen of Harvey et al. (2022)

Assay: yeast display, Sf9 membrane polyspecificity reagent, FACS + sequencing; frameworks hold sequencing errors
How it was run: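 In a synthetic yeast display library (Saccharomyces cerevisiae BJ5465), nanobody expression was induced with galactose for 36–48 hours. FACS gates were set low and high (top ~1%) using anti-HA fluorescence for expression and streptavidin fluorescence for binding of the Sf9 membrane reagent. Each polyreactivity label is drawn from the gate of origin.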

Row | Sequence | polyreactivity (PSR sort gate)
1 | QVQLVESGGGLVQAGGSLRLSCAASGSIFQGYAMGWYRKAPGKERELVAAITSSGGSTRYADSVKGRFTISRDNAKNTVYLQMNSLKPEDTAVYYCAARYKWPYDYWGQGTQVTVSS | high polyreactivity
2 | QVQLVESGGGLVQAGGSLRLSCAASGSIFQHYAMGWYRQAPGKEREFVAAISGRGGGTYYADSVKGRFTISRDNAKNTVYLQMNSLKPEDTAVYYCAADYRGSYWRYYYWGQGTQVTVSS | high polyreactivity
3 | QVQLVESGGGLVQAGGSLRLSCAASGSIFQIVYAMGWYRQAPGKERELVAAISRGGSTYYADSVKGRFTISRDNAKNTVYLQMNSLKPEDTAVYYCAADIVELSPRGVYHFDYWGQGTQVTVSS | high polyreactivity
4 | QVQLVESGGGLVQAGGSLRLSCAASGSIFQKYAMGWYRPAPGKERELVAAITSSGSTNYADSVKGRFTISRDNAKNTVYLQMNSLKPEDTAVYYCAADRYAGYYSWYYPLWSSKDDYWGQGTQVTVSS | low polyreactivity
5 | QVQLVESGGGLVQAGGSLRLSCAASGSIFQKYTMGWYRQAPGKERELVAAITRSGGSTYYADSVKGRFTISRDNAKNTVYLQMNSLKPEDSAVYYCNKRYIPWAYDYWGQGTQVTVSS | high polyreactivity
6 | QVQLVESGGGLVQAGGSLRLSCAASGSIFQQYDRGWYRQAPGKDREFVAAISSSGGSTYYADSVKGRFTISRDNAKNTDYLQMKSLKAEDSAVYYCAVDTIGYTYVDYLHGSGEFGYWGQGTQVTVSS | low polyreactivity
7 | QVQLVESGGGLVQAGGSLRLSCAASGSIFQRNAIGWSRQAPGKERELVAAITTTGGITHYADSVKGRFTISRDNAKNTVYLQMNSLKPEDTAVYYCAASNEVPWRFPDDYWGQGTQVTVSS | low polyreactivity
8 | QVQLVESGGGLVQAGGSLRLSCAASGSIFQRNAMGWYRQAPGKERELVASISFSDGTTYYADSVKGRCTISRDNAKNTVYLQMNSLKPEDTAVYYCAKKAIVSDQWDKYDYWGQGTQVTVSS | low polyreactivity
9 | QVQLVESGGGLVQAGGSLRLSCAASGSIFQVNAMGWYRQAPGKERELVASITTSGGSTYYADSVKGRFTISRDNAKNTVYLQMNSLKPEDTAVYYCAADHWSQDYDYWGQGTQVTVSS | low polyreactivity
10 | QVQLVESGGGLVQAGGSLRLSCAASGSIFQWYAMGWYRQAPGKERELVAVISRGGRTNYADSVKGRFTISRDNAKNTVYLQMNSLKPEDTAVYYCAAAVWFERGFSYRWRYGYWGQGTQVTVSS | high polyreactivity
11 | QVQLVESGGGLVQAGGSLRLSCAASGSIFQYNAMGGSRQSPGEDRELVAAISRSGGSTYYADSVKGRFTNSRDNAKNTVYLQMNSLKPEDTAVYYCNAVLGYYSPYDYWVQGTQVTVSS | low polyreactivity
12 | QVQLVESGGGLVQAGGSLRLSCAASGSIFQYNAMGWYRQAPGKEREFVAAITRGGGTYYADSVKGRFTISRDNAKKTVYLQMNSLKPEDTAVYYCAAQSRTSYRFNYWGQGTQVTVSS | high polyreactivity
13 | QVQLVESGGGLVQAGGSLRLSCAASGSIFQYNAMGWYRQAPGKERELVAAINGGGSTYYADSVKGRFTISRDNAKNTVYLQMNSLKPEDTAVYYCAADGGAYSYRGPGKFGIEDSWGQGTQVTVSS | low polyreactivity
14 | QVQLVESGGGLVQAGGSLRLSCAASGSIFQYNVMGRYRQEPGKEREFVADISSSGGSTYYADSVKGRFTISRDNAKNTVYLQMNSLKPEATAVYYCNARSKVAYDRHYYWGQGTQVTVSS | low polyreactivity
15 | QVQLVESGGGLVQAGGSLRLSCAASGSIFQYVYAMGWYRQAPGKERELVATITWSGGTTYYADSVKGRFTISRDNAKNTVYLQMHSLKPEDTADYYCAAESIYYPVAQYYYSFEYWGQGTQVTVSS | low polyreactivity
16 | QVQLVESGGGLVQAGGSLRLSCAASGSIFQYYAMGWYRQAPGKERELVAAISSAGSTKYADSVKGRFTISRDNAKNTVYLQMNSLKPEDTAVYYCAARDPSRHARRAYDYWGQGTQVTVSS | low polyreactivity
17 | QVQLVESGGGLVQAGGSLRLSCAASGSIFQYYAMGWYRQAPGKERELVAVISFSDGSTYYADSVKGRFTISRDNAKNTVYLQMNSLKPEDTAVYYCARRRFSVSRRSYYWGQGTQVTVSS | high polyreactivity
18 | QVQLVESGGGLVQAGGSLRLSCAASGSIFRAYAMGWSRQAPGKERELVAAISIGGRTYYADSVKGRFTISRDNAKNTVYLQMNSLKPEDTAVYYCAAVRSYVKGGMYYWGQGTQVTVSS | low polyreactivity
19 | QVQLVESGGGLVQAGGSLRLSCAASGSIFRAYVMGWYRQAPGTERELVAAISRGGSTNYADSVKGRFTISRDNAKNTVFLQMNSLKPEDTAVYYCNAGRGLREDDYWGQGTQVTVSS | low polyreactivity
20 | QVQLVESGGGLVQAGGSLRLSCAASGSIFRDNVMGWYRQAPGKERELVAAITQRGGSTYYADSVKGRFTISRDNAKNTVYVQMNSLKPEDTAVYYCNARRYVLRYNRFYYWGQGTEVTVSS | high polyreactivity
21 | QVQLVESGGGLVQAGGSLRLSCAASGSIFRFNAMGWNRPAPGKERELVAAITSSGGSTYYADSVKGRFTISRDNAKNTVYLQMNSLKPEDTAVYYCAKRWLYPISYDYWGQGTQVTVSS | high polyreactivity
22 | QVQLVESGGGLVQAGGSLRLSCAASGSIFRFNAMGWYRQAPGKEREFVAAISSGGRTYYADSVKGRFTISRDNAKNTVYGQRNSLKPDDPAVYYCAALWHRRGSWFRQTGSGYDYWGQGTQVTVSS | high polyreactivity

Row | Sequence | polyreactivity (PSR sort gate)
23 | QVQLVESGGGLVQAGGSLRLSCAASGSIFRFNAMGWYRQAPGKERELVAAISASGGSTYYADSVKGRFTISRDNAKNTVYLQMNSLKPEDTAVYYCAARRTAGAYYGYNYWGQGTQVTVSS | high polyreactivity
24 | QVQLVESGGGLVQAGGSLRLSCAASGSIFRFYAMGWYRQAPGKEGELVAAITSGGSTNYADSVKGRFTISRDNAKNTVYLQMNSLKPEDTAVSYCAAVVVYFFIYDYWGQGTQVTVSS | low polyreactivity
25 | QVQLVESGGGLVQAGGSLRLSCAASGSIFRFYAMGWYRQAPGKERELVAAITSGGSTNYADSVKGRFTISRDNAKNTVYLQMNSLKPEDTAVYYCAAELVYFFIYDYWGKGTQVTVSS | low polyreactivity
26 | QVQLVESGGGLVQAGGSLRLSCAASGSIFRFYAMGWYRQAPGKERELVAGISRRGGTTYYADSVKGRFTISRDNAKNTVYLQMNSLKPEDTAVYYCAKRSFGYKSRPAFNYWGQGTQVTVSS | high polyreactivity
27 | QVQLVESGGGLVQAGGSLRLSCAASGSIFRGNAMGCYRQAPWKARELVAGINRAGSTKYADSVKGRFTISRDNAKNTVYVQMISLKQEDTEVYYCAAVRYERGLWSDYWGQGTQVTVSS | high polyreactivity
28 | QVQLVESGGGLVQAGGSLRLSCAASGSIFRGNAMGWYRQAPGKERELVASISYSGGSTYYADSVKGRFTISRDTAKNTVYLQMNSLKPEDTAVYYCAADESVAYPYSGYQYYRHIYDYWGQGTQVTVSS | low polyreactivity
29 | QVQLVESGGGLVQAGGSLRLSCAASGSIFRGYAMGWYRPAPGKERELVAAISWSAGSTYYADSVKGRFTISRDNAKNTVYLQMNSLKPEDTAVYYCAARSPRRKGMDYWGQGTQVTVSS | high polyreactivity
30 | QVQLVESGGGLVQAGGSLRLSCAASGSIFRGYAMGWYRQAPGKERELVAAITSSGARTFYADSVKGRFTISRDNAKNTVYFLMKSLRPEDTAVYYCDAVSANQDFDSWGQGTQVSVSS | high polyreactivity
31 | QVQLVESGGGLVQAGGSLRLSCAASGSIFRGYAMGWYRQAPGKERELVAVITSGGSTDYADSVKGRFTISRDNAKNTVYLQMNSLKPEDTAVYYCAALPGGYYDRGEYDYWGQGTQVTVSS | low polyreactivity
32 | QVQLVESGGGLVQAGGSLRLSCAASGSIFRGYTMGWYRQAPGKERELVAAISRSGGSTYYADSVKGRFTISRDNAKNTVYLQMNSLKPEDTAVYYCNVVYFVTTSAGYDYWGQGTQVTVSS | high polyreactivity
33 | QVQLVESGGGLVQAGGSLRLSCAASGSIFRGYTMGWYRQAPGKERELVAAISWSGGSTYYADSVKGRFTISRDNAKNTVYLQMNSLKPEDTAVYDCAAGDYYHRIFLWYDYWGQGTQVTVSS | low polyreactivity
34 | QVQLVESGGGLVQAGGSLRLSCAASGSIFRGYTMGWYRQAPGKERELVATISWSGGSTYYADTVKGRFTISRDNAKNTVYLQMNSLKREDTAVYYCDARNQCRGYYWGEGTQVTVSS | high polyreactivity
35 | QVQLVESGGGLVQAGGSLRLSCAASGSIFRINDMGWYRQAPGKERELVAAITFSGGSTYADSVKGRFTISRDNAKNTVNLQMNSLKPEDTAVYYCNADGAYWTDYYLYDYWGQGTQVTVSS | low polyreactivity
36 | QVQLVESGGGLVQAGGSLRLSCAASGSIFRIYAMGWYRQAPGKERELVAAISWSGGSTYYADSVKGRFTISRDNANNTVYLQMNSRKPEDTAVYYCAARPRYKYSAYEYWGQGTQVTVSS | high polyreactivity
37 | QVQLVESGGGLVQAGGSLRLSCAASGSIFRKNAMGWYRQAPGKERELVAAITGTGRTTYADSVKGRFTISRDNAKNTVYLQMNSLKPEDTAVYYCATSYHRRYDYWGQGTQVTVSS | low polyreactivity
38 | QVQLVESGGGLVQAGGSLRLSCAASGSIFRKYPMGWYRQAPGKDTELVAAISKRGGSTYYADSVKGRFTISRDNAKNTVYLQMNSLKPEDTAVYYFNALRRYVSVRPTKSDYWGQGTQVTVSS | high polyreactivity
39 | QVQLVESGGGLVQAGGSLRLSCAASGSIFRKYTMGWYKQAPGKERELVAAISGTAGRTYYADSVKGRFTISRDNAKNTVYLKMNSLKPEDTAVYYCAALRFGGYGYNYWGQGTQVTVSS | high polyreactivity
40 | QVQLVESGGGLVQAGGSLRLSCAASGSIFRKYVMGWYRQAPGKERELVAVISSGTGTYYADSVKGRFTISRDNAKYTVYLQMNSLKPEDTAVYYCSSKYFGKWYKYYYWGQGTQVTVSS | high polyreactivity
41 | QVQLVESGGGLVQAGGSLRLSCAASGSIFRLYAMGWYRQAPGKERELVAAISWTVGRTYYADSVKGRFTISRDNAKNTVYVQMNSLKPEDTAVYYCAAEKRILANWRRFDYWGQGTQVTVSS | low polyreactivity
42 | QVQLVESGGGLVQAGGSLRLSCAASGSIFRLYVMGWYRQAPGKERELVATITRSGGNTYYADSVKGRFTISRDNAKNTVYLQMNSLKPEDTAVYYCAAQSAKSGFYPYNRYDYWGQGTQVTVSS | low polyreactivity
43 | QVQLVESGGGLVQAGGSLRLSCAASGSIFRNYAMGWYRQAPGKERELVAAISRTTRTYYADSVKGRFTISRDNAKNTVYLQMNSLKPEDTAVYYCAADYVYAGFWLYYWGQGTQVTVSS | high polyreactivity
